Results: the DeepSol protein solubility set

Test: soluble on expression in E. coli; label from the status in PepcDB or PDB records

Sequence | soluble on expression in E. coli
MCIAIPGKMTAIVDENTATIDMGGICRDVNMALMGGAEESMIGKHFLVHVGYAISEISEEESEETMRLLKIMAGLEEIDSFENESQ | not soluble
TEPTIHKGLAGVTADVTAISKVNSDTNSLLYRGYPVQELAAKCSFEQVAYLLWNSELPNDSELKAFVNFERSHRKLDENVKGAIDLLSTACHPMDVARTAVSVLGANHARAQDSSPEANLEKAMSLLATFPSVVAYDQRRRRGEELIEPREDLDYSANFLWMTFGEEAAPEVVEAFNVSMILYAEHSFNASTFTARVITSTLADLHSAVTGAIGALKGPLHGGANEAVMHTFEEIGIRKDESLDEAATRSKAWMVDALAQKKKVMGFGHRVYKNGDSRVPTMKSALDAMIKHYDRPEMLGLYNGLEAAMEEAKQIKPNLDYPAGPTYNLMGFDTEMFTPLFIAARITGWTAHIMEQVADNALIRPLSEYNGPEQRQVP | soluble
MGVMESGRPPAKPRERVFVGGCLHAGMDHDTAGRTSRQILDAVGSAVIADDHFLETVMTGILARGHVLLEDVPGTGKTLTAQSFATALDLSFKRVQFTPDLLPSDITGSNVFNEATGEFDFQPGPVFANVVLADEINRAPPKTQAALLEAMGEKQVTVDGVTHDLPEPFFVIATQNPVEQEGTFGLPEAQRDRFIVKTSMGYPDFGGERELIDRRADRTAQAPSVTSVIDGERLPALQRTVESVTVDGTLRDYVVELGRATREDDRVDVGVSPRGIQRLFEATRAAAVLDGRDYAVPDDVKTVVEEAFAHRLVLTADAGVRGVDPATVVDDVLDRVEVPAVSPLEHHHHHH | not soluble
MGSDKIHHHHHHSQRQMDIIGNNLANSSTLGYKSADTQFANMLSQSLTSGSGSFQVGQGVAISSVNTKFDQGSFESTGSVTDMAIDGEGFFPVKDKEGAIYYTRAGAFVIDKDGYLVDVNGYRVQGINLFSAPGDAELTDICLKNIQSAPSATKTFGIGVNLNDSEDAGTSFVVSQNVFDSKGAIHNLSLTFTKTEGDGYWGCQAKLDNVETINSSCCGIKFDESGNLKNTYLTSCSAGAVSGGGAITSTTVNKPGQLYLNGTIACTRGADADTWTISSSEYPNLEFSLGDLGNDDEIAIDLDGKGGTDITLALGAGFADLSSFDLTISQVESNAADVTFEFPGLANGADIGSGNALTWNLIGDDALQVTGYAATSVIKALEVDGYTSGVLKSLSVEKDGIISGIFTNGQTSDLGQVVLANFPNVGALRKIGSYFAETNFSGAAIINSPGTGGLGEIMSNSLEQSNTDVSMEFVNMINAQRAYQASARIITTSDEMLTELMNIKR | not soluble
MAIYILEDQIIQAKALEVLLTNILHSRNIYNETIHLFSRSDELLQVAHQDAQLNIFFLDIQMNNHIQAGFEVAKEIRKTDSESLIVFISTHTELVLTSYKYMVSALQFIQKNVDFLDFQKEVETCVDAYIQQKENIKTKSEYIIINLKASSIKMDINDIYFFQTEYDHRVSMVGKNFKREFYGTLSKIEQLHPDLIRVHQSIIINKKYASKLNYKTHLLTMRDGTEVPVSRRYYTQVKALFLT | not soluble
MAHHHHHHMSSPAWSVYEGDWGSFCDDADNVPPTLSLKGCGLRQKCLLQRGAQGAVYLGEDADGNVFVVKRLFTQRSEFGVRGVSEGSLREATLLTYITERSKTLGPEPLFGVIRLERIVEAPFQELSLILERCAFNLSRMVFYSRKRAYSAAGLFPETPTRCPILAKMNVIQYLMRGILKILQFLHEECHIIHRDVKLGNLLVGEDGRVRLADFGSARFMHEPVEKMSDARSGEYTPISLRTTVIYQAPECLLGERSYTAAVDMWAAGVVFAELLLQQHLFHSCSELGMLSDIWKLLGTPSDDPSVCSGEGAVTYAVRTESTIERKFPERIVSAEGLDLLKRMLETNPKKRITDSEALRHPFLCGPAVESGMEEARRLWNKKVEACMQETVAQPAAMGMRSFYVDNVEFDEESGENDDDDGEIATLPTCLDCFPHILSDVNGRHDI | not soluble
GPLGSPRNANDNNQFYQQKQRQALGEQLYKKVSAKTSNEEAAGKITGMILDLPPQEVFPLLESDELFEQHYKEASAAYESFKKEQEQQTEQA | soluble
VNEIVVNPNATLDWQLALRQAAGKTDLARDMLQMLLDFLPEVRNKVEEQLVGENPEGLVDLIHKLHGSCGYSGVPRMKNLCQLIEQQLRSGTKEEDLEPELLELLDEMDNVAREASKILG | soluble
MTVQQKIASGRSSGRTVSQERLNQLSEQTRRAIAQLEPVTLDWVAPVATDMDVAVIGGGQSGVAIAFGLRRAGIRRVQVFDAATPETAGVWNTIARMHTLRAGKGFTGLEQGIPELTFEHWYVALHGDAAFAAMAEIPRTVWLDYLNWYRETAGIDVRWQHRLISIDPRSDAENAPLNLRFELQDKGVIDLSTQTIVLATGLDGLGEPYIPSVLSHTLPPDRLVHTNDLINFSSLRGLSVGVVGAAASAFDAAAVALEHGAASVHQFVRHGDLVEANDQAAARPSADKLFFPEFDDAMRWRLILERRRRSSAPDAAIARACQHPNHYLHFNVAAEQIVALGDDIVARTTTGDIMLDTVIAATGYRQNVYARPELTAAAPHILLWQDRVAAAEGESGWSSHPYLGKGFELQEIEPGSAPWLKRIHVYTFAAIISHGIHAGDIGSAAIALPRLIAAVARSLFIHARADYERLASLGPSIAVDRVAPSPVSGPWEAAPLEHHHHHH | soluble
MAKKVAICTLLYSRDYLPGALTLAYQLQKLLKHAVVEDEITLCLLIEKKLFGDEFKPQEIALIRSLFKEIIIIEPLKDQEKSIEKNKANLELLKRPELSHTLLKARLWELVQFDQVLFLDADTLPLNKEFFEILRLYPEQTRFQIAAVPDIGWPDMFNTGVLLLIPDLDMATSLQDFLIKTVSIDGADQGIFNQFFNPICNYSKEVLHKVSPLMEWIRLPFTYNVTMPNYGYQSSPAMNFFQQHIRLIHFIGTFKPWSRNTTDYDDHYYQLWRSTQRELYSECHLSNYFTHLQLGNIETETNFYHEPPCLQDLLNHGKRENQKHVDLDITSVDRNASQKSTAEKHDIEKPTSKPQSAFKFDWESTDYLDRVQRAFPKPDT | soluble
MAPTQAQKVLEAFEDFLKCLDLESYQEKYRPIKTVEQDLPRELNPLPDLYDHYWKPNGNTLHFPDFETFFDQWWEKRLRPLNEFIRKYFWGCSYEFVRLGLEARLYRTAVSIWTQFHFCYRWNASCQLRLTATWELDAQGIDAQIQAEDRLIGIQIKKETYRSEAREGNRFLRRREHSALLEVPYTLQSPEELERKAQRARTREEAYRLWVKIAHHLERLPNGFVIFRESYVKDLENFLKQNATTLSGLIPWDKVAREALTGP | soluble
MEDDDSPSSRDLDAQNPYDRLLALDTSTVDPNCNLDSVSAIYLAMKSSKLECVDERGQDSLITSVCMEDEEDEELDEFDPYLFIKNLPNLSSVVPTFRPVLLPKQTRSCPPISLVLDLDETLVHSTLEPCGEVDFTFPVNFNEEEHMVYVRCRPHLKEFMERVSRLFEIIIFTASQSIYAEQLLNVLDPKRKLFRHRVYRDSCVFFDGNYLKDLSVLGRDLSRVIIVDNSPQAFGFQVENGVPIESWFNDPSDKELLHLLPFLESLIGVEDVRPMIAKKFNLREKIDAAVAAPEYPAEAGDPFER | soluble
HGIQLLGYARKILRFNDEACSSLMFSNLQGVLTIGASDESADTILPFLLNRVSSVYPKLALDVRVKRNAYMAEMLESQEVDLMVTTHRPSAFKALNLRTSPTHWYCAAEYILQKGEPIPLVLLDDPSPFRDMVLATLNKADIPWRLAYVASTLPAVRAAVKAGLGVTARPVEMMSPDLRVLSGVDGLPPLPDTEYLLCYDPSSNNELAQVIYQAMESYHNPWQYSPMSAPEGDDSLLIERDIE | soluble
MGSDKIHHHHHHMTYREYKEPATRAGGIIELPHRTDANRFLASLGVAERATLASHLQLVHVKSGQVLCEPGMALEHVYLPVTTVISIQYASSDGMTLEIAEIGNEGIVSPQLVGTDGASPCRVITCRDGFSYRLGARVLSNLLEESAQTRQAIFRCTHLLMAQAKQISFCSRHHVLKNQLCRWFLLAYDRSRSVEIQVTHSMLAQMLGVRRETVTDAAGDIQKMGLIRQYRSSIILVDLPGLDAQSCGCHAIIREEMKKIQAAPTSASGTLTELRS | not soluble
GKRSHSMKRNPNAPVTKAGWLFKQASSGVKQWNKRWFVLVDRCLFYYKDEKEESILGSIPLLSFRVAAVQPSDNISRKHTFKAEHAGVRTYFFSAESPEEQEAWIQAMGEAARVQ | soluble
MADRQLLHTAHIPVRWGDMDSYGHVNNTLYFQYLEEARVAWFETLGIDLEGAAEGPVVLQSLHTYLKPVVHPATVVVELYAGRLGTSSLVLEHRLHTLEDPQGTYGEGHCKLVWVRHAENRSTPVPDSIRAAIA | soluble
PLPIPPPPPDIQPLERYWAAHQQLRETDIPQLSQASRLSTQQVLDWFDSRLPQPAEV | soluble
GPGSMIYVSERPMARTFVVFDKDGKPAERPDEYFPLVQMDKEEFVNRRRGHVADENLFAVDGDLILSHLIMGTQIMYDAEKNAVHSCDTGESEADGSIPISVRVLSDEFVVRHESQPDCLAWGSEAPSVYAG | not soluble
MGSDKIHHHHHHMLSKICMKILTVLDSYPPDLNGGAYFTHRLAKFLQAKGHEVLVICPSRSLKQGYTSYEGVNLYGVRSWPALGYKNFRVCWPFFIKKGILKAITDFNPDVVHLQGKFFLGGICYRACRKKGIPLMATNHFMPENFFHYTHLPKYFEKWFHRTTWNIVIDMLNHVKIVTTPTHTAANLLKEVHIQKEIHVVSCGVDLQKFQPKQNANLIRQRYKIPDKPILLYAGRLDKEKNLSIAIKAFYKARQSIDAHFVLTGRGAELQRLKKLVQTLNLTEHVTFTGYLSDAEYPLVYSLANCFVNPGTAELQSIVALEAIASGLPLLAAKAMALPELVKEGVNGYLFDPNDVETLSCYMVKILSDRTFSEQMGRESRKLSQEHDIKRTIEQYETLYQSMVS | not soluble
MSLRGLRGRSFTIGVLLIDIRNPFLPEVIAGVNEVLGPSHYQAMIGVSDARVQLETSLIESMIDYKMDGLILVAPRLPSEILATFAVQIPIVAVGYHDASATAFDTVNAE | soluble
MGSSHHHHHHSSGLVPRGSHMGHGSRLPYGEEVINGIADIYRQEADHPVAVGFMNMSRPSIPEAINELAAMGVEKIIVTPVFLAHGVHTKHDIPHILGLDNGAEGHHHHEHEHEHEEFEFDGEIVYTEPLGADPRIAEIIRDRVKSAI | soluble
MGSSHHHHHHSSGLVPRGSRHSTLDFMLGAKADGETILKGLQSIFQEQGMAESVHTWQDHGYLATYTNKNGSFANLRIYPHGLVLLDLQSYDGDAQGKEEIDSILNKVEERMKELSQDSTGRVKRLPPIVRGGAIDRYWPTADGRLVEYDIDEVVYDEDSPYQNIKILHSKQFGNILILSGDVNLAESDLAYTRAIMGSGKEDYTGKDVLILGGGDGGILCEIVKLKPKMVTMVEIDQMVIDGCKKYMRKTCGDVLDNLKGDCYQVLIEDCIPVLKRYAKEGREFDYVINDLTAVPISTSPEEDSTWEFLRLILDLSMKVLKQDGKYFTQGNCVNLTEALSLYEEQLGRLYCPVEFSKEIVCVPSYLELWVFYTVWKKAKP | soluble
